This is an account of results in patent publication US20240209107A1 (Sanofi, published 2024).

T1: Human OX40 (amino acids 29-170 of human OX40) (human, UniProt P43489 29-170)
T1 construct: range 29-170
T1 sequence (looked up): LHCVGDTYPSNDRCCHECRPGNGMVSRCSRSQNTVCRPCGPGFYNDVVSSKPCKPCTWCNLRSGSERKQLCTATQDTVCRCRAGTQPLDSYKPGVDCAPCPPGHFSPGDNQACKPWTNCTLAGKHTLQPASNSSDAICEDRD

T2: human OX40 (10481-H08H, Sino Biological), recombinant (human, UniProt P43489 29-216)
T2 construct: Bought protein
T2 sequence (looked up): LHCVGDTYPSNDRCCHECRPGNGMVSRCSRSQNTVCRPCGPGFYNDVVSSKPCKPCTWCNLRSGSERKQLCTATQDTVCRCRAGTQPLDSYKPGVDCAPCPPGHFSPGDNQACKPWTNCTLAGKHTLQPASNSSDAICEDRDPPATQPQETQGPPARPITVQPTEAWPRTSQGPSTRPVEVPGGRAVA

T3: human OX40 on the surface of cells (HEK293 cells expressing human OX40, jurkat cells engineered to express … (human, UniProt P43489 29-277))
T3 construct: whole, on cells; also called huOX40
T3 sequence (looked up): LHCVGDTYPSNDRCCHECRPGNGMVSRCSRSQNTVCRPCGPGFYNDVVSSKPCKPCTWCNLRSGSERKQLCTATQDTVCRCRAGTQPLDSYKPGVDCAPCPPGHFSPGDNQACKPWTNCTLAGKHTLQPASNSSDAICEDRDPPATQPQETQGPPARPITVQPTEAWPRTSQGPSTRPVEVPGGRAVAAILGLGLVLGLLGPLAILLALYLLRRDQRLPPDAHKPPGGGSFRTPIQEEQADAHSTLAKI

B1: prototype OX40 arm Fab (Fab, V domains shown)
VH: EVQLVESGGVVVQPGGSLRLSCAASGFTFDDYTMHWVRQAPGKGLEWVSLISWDGGSTYYADSVKGRFTISRDNSKNSLYLQMNSLRTEDTAVYYCARDNLWGYLTYFDYWGQGTLVTVSS
VL: QSVLTQPPSVSAAPGQKVTISCSGSSSNIGNNYVSWYQQLPGTAPKLLIYDNNKRPSGIPDRFSGSKSGTSATLGITGLQTGDEADYYCGTWDSSLTAYVFGGGTKLTVL
notes: Fab of the OX40 arm of the bispecific CD28-OX40 prototype; also called prototype arm
B2: L4 & L6 & L5 CD28 arm VHH (VHH-His) (VHH)
VHH: DVQLVESGGGVVQPGGSLRLSCAASGFTFSSYYMSWVRQAPGKGLEWVSTINTDGDFTSYADSVKGRFTISRDNAKNTLYLQMNSLRPEDTALYYCARARGPYSRGSQGHDYRGQGTLVTVSS
notes: Used as VHH-His in the crystal structure with CD28-His; also called L4, L6 & L5 CD28 VHH; not shown: His tag
B3: bispecific antibody L1 (anti-CD28 VHH x anti-OX40 Fab, human IgG1 Fc) (bispecific antibody)
light: not shown
heavy: not shown
chain: DVQLVESGGGVVQPGGSLRLSCAASGSFFSIDTMDWYRQAPGKQRELVTGVTSGGLTNYADSVKGRFTISIDNAKNTVYLQMNSLRPEDTALYYCSARIRTSGGGGWSTYWGQGTLVTVSSGGGGSDKTHTCPPCPAPEAAGGPSVFLFPPKPKDTLMISRTPEVTCVVVDVSHEDPEVKFNWYVDGVEVHNAKTKPREEQYNSTYRVVSVLTVLHQDWLNGKEYKCKVSNKALPAPIEKTISKAKGQPREPQVCTLPPSRDELTKNQVSLSCAVKGFYPSDIAVEWESNGQPENNYKTTPPVLDSDGSFFLVSKLTVDKSRWQQGNVFSCSVMHEALHNRFTQKSLSLSPG
notes: Three chains: anti-OX40 light chain (I), anti-OX40 heavy chain (II), anti-CD28 VHH-Fc chain (III); also called lead candidate L1
B4: bispecific antibody L3 (anti-CD28 VHH x anti-OX40 Fab, human IgG1 Fc) (bispecific antibody)
light: not shown
heavy: not shown
chain: B3 chain
notes: Three chains: anti-OX40 light chain (I), anti-OX40 heavy chain (II), anti-CD28 VHH-Fc chain (III); also called lead candidate L3
B5: bispecific antibody L2 (anti-CD28 VHH x anti-OX40 Fab, human IgG1 Fc) (bispecific antibody)
light: not shown
heavy: not shown
chain: B3 chain
notes: Three chains: anti-OX40 light chain (I), anti-OX40 heavy chain (II), anti-CD28 VHH-Fc chain (III); also called lead candidate L2
B6: bispecific antibody L4 (anti-CD28 VHH x anti-OX40 Fab, human IgG1 Fc) (bispecific antibody)
light: not shown
heavy: not shown
chain: DVQLVESGGGVVQPGGSLRLSCAASGFTFSSYYMSWVRQAPGKGLEWVSTINTDGDFTSYADSVKGRFTISRDNAKNTLYLQMNSLRPEDTALYYCARARGPYSRGSQGHDYRGQGTLVTVSSGGGGSDKTHTCPPCPAPEAAGGPSVFLFPPKPKDTLMISRTPEVTCVVVDVSHEDPEVKFNWYVDGVEVHNAKTKPREEQYNSTYRVVSVLTVLHQDWLNGKEYKCKVSNKALPAPIEKTISKAKGQPREPQVCTLPPSRDELTKNQVSLSCAVKGFYPSDIAVEWESNGQPENNYKTTPPVLDSDGSFFLVSKLTVDKSRWQQGNVFSCSVMHEALHNRFTQKSLSLSPG
notes: Three chains: anti-OX40 light chain (I), anti-OX40 heavy chain (II), anti-CD28 VHH-Fc chain (III); also called lead candidate L4
B7: bispecific antibody L6 (anti-CD28 VHH x anti-OX40 Fab, human IgG1 Fc) (bispecific antibody)
light: not shown
heavy: not shown
chain: B6 chain
notes: Three chains: anti-OX40 light chain (I), anti-OX40 heavy chain (II), anti-CD28 VHH-Fc chain (III); also called lead candidate L6
B8: bispecific antibody L5 (anti-CD28 VHH x anti-OX40 Fab, human IgG1 Fc) (bispecific antibody)
light: not shown
heavy: not shown
chain: B6 chain
notes: Three chains: anti-OX40 light chain (I), anti-OX40 heavy chain (II), anti-CD28 VHH-Fc chain (III); also called lead candidate L5

The target in the first test is T1, Human OX40 (amino acids 29-170 of human …). The test can be described thus: structure of the complex.
For B1, the binding result is listed as “binds”.

The target in a further test is T4, CD28-His (amino acids 19-136 of human CD28) (human, UniProt P10747 19-136).
T4 construct: Expressed in Expi293 cells, purified by HisTrap and SEC; also called Human CD28 Amino acids 19-136; not shown: His tag
The test can be described thus: complex formation, SEC, crystal structure.
For B2, the binding result is “binds”.

For another test, the target named is T5, human CD28 (CD28-3910H, Creative Bio Mart), recombinant (human, UniProt P10747 19-152).
T5 construct: Bought protein
T5 sequence (P10747 19-152 limits assumed): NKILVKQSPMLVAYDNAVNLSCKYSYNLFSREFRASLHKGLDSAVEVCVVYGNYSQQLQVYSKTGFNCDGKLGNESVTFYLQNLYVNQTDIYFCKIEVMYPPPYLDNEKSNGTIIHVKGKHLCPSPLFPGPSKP
Kind of test: SPR (Biacore 8K), bispecific captured by anti-human Fc, antigen as analyte, 1:1 model. On the technique in general: In SPR one partner is held on a chip, and binding of the other changes the refractive index at the surface.
On to B3, for which the Kd (commonly the free concentration of one partner at which half of the binding sites on the other are occupied at equilibrium, for simple one-to-one binding) is 3.6 nM.
With B4, the Kd amounted to 3.3 nM.
Regarding B5, the dissociation constant (Kd) worked out at 3.23 nM.
Still for that read-out and setting: the same measure for B6: 11.9 nM; for B7: 11.3 nM; for B8: 9.99 nM.

Another test addresses T2, human OX40 (10481-H08H, Sino …). Described as above.
For the molecule B3, the Kd is 4.3 nM.
On the same count and under the same terms, the same measure for B4: 8.1 nM; for B5: 6.9 nM; for B6: 4.1 nM.
For the molecule B7, the dissociation constant Kd came out at 8.1 nM.
As for B8, the dissociation constant (Kd) amounted to 6.1 nM.

The next test has as its target T6, cyno OX40 (internal production), recombinant (cynomolgus monkey).
T6 construct: also called Cynomolgus Monkey OX40
The test is described as above.
For B3, the Kd was 2.9 nM.
The same measure, in the same setting: the same measure for B4: 15 nM.
In the case of B5, the Kd came out at 4 nM.
Turning to B6, the dissociation constant Kd came out at 3.7 nM.
Same read-out and setting: then B7, with 20 nM; and B8, with 3.3 nM.

The target in the next test is T7, human FcRn (Immunitrack, ITF01-200) (human, UniProt P55899 24-297; P61769 21-119).
T7 construct: captured on a Series S Sensor Chip CAP; also called recombinant human FcRN
T7 sequence (P55899 24-297 limits assumed, chain 1 of 2): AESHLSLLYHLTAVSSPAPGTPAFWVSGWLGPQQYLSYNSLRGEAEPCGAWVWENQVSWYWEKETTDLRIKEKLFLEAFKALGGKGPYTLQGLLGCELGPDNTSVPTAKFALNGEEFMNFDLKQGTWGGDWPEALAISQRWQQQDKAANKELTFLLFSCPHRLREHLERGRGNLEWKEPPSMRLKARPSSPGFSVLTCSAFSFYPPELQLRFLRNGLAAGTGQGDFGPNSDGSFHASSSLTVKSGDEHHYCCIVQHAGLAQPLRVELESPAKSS
T7 sequence (P61769 21-119 limits assumed, chain 2 of 2): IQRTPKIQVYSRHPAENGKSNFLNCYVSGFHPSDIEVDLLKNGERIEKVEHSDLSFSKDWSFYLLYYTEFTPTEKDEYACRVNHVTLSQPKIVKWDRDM
The test can be described thus: SPR (Biacore 8K), FcRn captured on CAP chip, bispecific as analyte, pH 6.0, steady state.
Molecule B3 showed a dissociation constant (Kd) of 924 nM.
The same measure, in the same setting: the same measure for B4: 990 nM; for B5: 988 nM; for B6: 574 nM.
B7 gave a Kd of 745 nM.
On to B8, for which binding was put at a Kd of 714 nM.

A further test addresses T3, human OX40 on the surface of cells …. The test can be described thus: flow cytometry on HEK293 cells expressing human OX40; anti-human IgG Fc PE secondary; MFI. For orientation: A flow cytometer gives signals particle by particle.
With B3, the half-maximal effective concentration (EC50 (read off the curve)) (usually the concentration that produces a half-maximal response) was around 0.7 nM.
Same read-out and setting: then B4, with around 1 nM; and B5, with around 1 nM.
Turning to B6, the “EC50 (read off the curve)” value is around 1 nM.
Consider B7, for which the “EC50 (read off the curve)” value is around 1 nM.
Turning to B8, the concentration giving a half-maximal response (EC50 (read off the curve)) was around 1 nM.
